Data on two proteins can be found in paper doi:10.1101/2025.01.14.632894 (bioRxiv, 2025).

Data set [1] deals with the molecule itself. Nature of the data set: mass photometry.
Data set [2] concerns the molecule itself. Kind of data set: SAXS.

As a reminder, the stoichiometry N is the number of molecules, sites or subunits per partner or assembly.

B1: CCDC6-RET fusion product (CCDC6 residues 1-101 fused to RET residues 713-1072), wild type, apo (un-phosphorylated) state (enzyme, human, UniProt Q16204 1-101, looked up)
chain: MADSASESDTDGAGGNSSSSAAMQSSCSSTSGGGGGGGGGGGGGKSGGIVISPFRLEELTNRLASLQQENKVLKIELETYKLKCKALQEENRDLRKASVTIEDPKWEFPRKNLVLGKTLGEGEFGKVVKATAFHLKGRAGYTTVAVKMLKENASPSELRDLLSEFNVLKQVNHPHVIKLYGACSQDGPLLLIVEYAKYGSLRGFLRESRKVGPGYLGSGGSRNSSSLDHPDERALTMGDLISFAWQISQGMQYLAEMKLVHRDLAARNILVAEGRKMKISDFGLSRDVYEEDSYVKRSQGRIPVKWMAIESLFDHIYTTQSDVWSFGVLLWEIVTLGGNPYPGIPPERLFNLLKTGHRMERPDNCSEEMYRLMLQCWKQEPDKRPVFADISKDLEKMMVKRRDYLDLAASTPSDSLIYDDGLSEEETPLVDCNNAPLPRALPSTWIENKLYGRISHAFTRF
modifications: activation loop Tyr 900 and c-terminal Ser 1034 showed high levels of phosphorylation in the basal state
On to B1, for which the “stoichiometry N” value in data set [1] stood at 2.

B2: CCDC6-RET lacking the c-terminal segment of RET (CCDC6 1-101 fused to RET aa 713-1013) (enzyme, human, UniProt Q16204 1-101, looked up)
chain: MADSASESDTDGAGGNSSSSAAMQSSCSSTSGGGGGGGGGGGGGKSGGIVISPFRLEELTNRLASLQQENKVLKIELETYKLKCKALQEENRDLRKASVTIEDPKWEFPRKNLVLGKTLGEGEFGKVVKATAFHLKGRAGYTTVAVKMLKENASPSELRDLLSEFNVLKQVNHPHVIKLYGACSQDGPLLLIVEYAKYGSLRGFLRESRKVGPGYLGSGGSRNSSSLDHPDERALTMGDLISFAWQISQGMQYLAEMKLVHRDLAARNILVAEGRKMKISDFGLSRDVYEEDSYVKRSQGRIPVKWMAIESLFDHIYTTQSDVWSFGVLLWEIVTLGGNPYPGIPPERLFNLLKTGHRMERPDNCSEEMYRLMLQCWKQEPDKRPVFADISKDLEKMMVKRR
For the protein B2, the binding result in data set [2] is listed as “binds”.
